A short description of the series: yeast display, Sf9 membrane polyspecificity reagent, FACS + sequencing; frameworks hold sequencing errors. The essentials: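 Sorting gates, low and high (top ~1%), were placed on anti-HA fluorescence to track expression and on streptavidin fluorescence to track reagent binding. A clone's polyreactivity label is taken from the gate it came out of. The reagent was 10% biotinylated, detergent-solubilized Sf9 membrane, applied for 1 hour at 4 °C to galactose-induced yeast display cells.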
As for “QVQLEESGGGLVQAGGSLRLSCAASGRTFPLYVMGWYRQAPGKEREWVAAISARGGSTYYADSVKGRFTISRDNAKNTVYLQMNSLKPEDTAVYYCATLVTNGRYDSWGQGTQVTVSS”, the “polyreactivity (PSR sort gate)” value is on record as “high polyreactivity”. Turning to “QVQLVESGGGLVQAGGSLRLSCAASGFILYYYAKGWYRPAPGKERELVAAISWSGDSTYYADSVKGRFTISRDNAKNTVYLQMNSLKPEDTAVYYCAATWQLTHRYYWGQGTQVTVSS”, the “polyreactivity (PSR sort gate)” value is reported as “low polyreactivity”. Regarding “QVQLVESGGGLVQAGGSLRLSCAASGRIFYSYAMGWYRQAPGKEWELVAVNTGGGRTYYADSVKGRFTISRDNAKNTVYLQMNSLKPEDTAVYYCAYRYGGTFRYDYWGQGTQVTVSS”, the “polyreactivity (PSR sort gate)” value is given as “high polyreactivity”. Consider “QVQLVESGGGLDQAGGSLRLSCAASGNIFYTNAMGWYRQEPGKAREFVAAISGSGGRTYYADSVKGRFTMSRDNAKNTFYLQMNSLKPEDTEVYYCNAVRRDYYDRNYGYWGQGTQVSVSS”, for which the “polyreactivity (PSR sort gate)” value was “low polyreactivity”. In the case of “QVQLVESGGGLVQAGGSLRLICAASGNIFTYYAMGWYRQAPWKERELVAAISSGDSTNYADSVKGRFTISRDNAKNTVYLQMNSLKPEDTAVYYCNVDRVPSRRYYAQKGYFRYYYWGQGTQVTVSS” it was “high polyreactivity”; in that of “QVQLVESGGGLVQAGGSLRLSCAASGFTIWRNDMGWYRQAPGKERELVAVISTAGRTYYADSVKGRFTISRDNAKITVYLQMNSLKPEDTAVYYCAKRSYSKDQPRYGYWGQGTQVTVSS”, “low polyreactivity”.

Consider “QVQHVESGGALVQAGGSLRLSCAASARTFPGYTMGWYRQAPGKETELVAAITRVGTTYYADSVKGRFTISRDNAKNTVYLQMNSLKPEDTAVYYCAAVISQGFIRYYYWGQGTQVTVSS”, for which the “polyreactivity (PSR sort gate)” value was “high polyreactivity”. As for “QVQLVESGGGLVQAGVSLRLSCAASGRIKDNVMGWYRQAPGKERELVAAITRYAGRTYYAYSVKGRFTISRDNAKITVYLQMNSLKPVDTAVYYCAAQAERSGYEYWGLGTQVTVSS”, the “polyreactivity (PSR sort gate)” value is listed as “low polyreactivity”.

As for “QVQLVESGGGLVQAGGSLRLSCAASGSTFIKNAMGWYRQAPGKERELVAAIPWGGGSTYYADSVKGRFTISRDNAKNTVYLQMNSLKPEDTAVYYCAAGNDIWRYYGYDYWGQGTQVTVSS”, the “polyreactivity (PSR sort gate)” value is “low polyreactivity”.

Take “QVQLVESGGGLVQAGGSLRLSCAASGSTFVSNAMGWYRQAPGKERELVAAISSSGGRTSYADSVKGRFTISRDNAKNTVYLQMNSLKPEDTAVYYCAARFKSVDYVQYYYWGQGTQVTVSS”: the “polyreactivity (PSR sort gate)” value was “low polyreactivity”.

As to “QVHLVETGGGLVQAGGSLRLSCAASGRTFYVNAMGWYRQAPWKERELVARITSGGSTYYADSVKGRFTISRDNAKNTVYLQMNSLKPEDTAVYYCAKKYIGYQVWIHSTRRYDYWGHGTQVTVSS”, the “polyreactivity (PSR sort gate)” value is “low polyreactivity”. With “QVQLVESGGGLVQAGGSLRLSCAASGFIFSVYAMGWYRQAPGKEREFVAAIRWSGGSTYYADSVKGRFTISRDNAKNTVYLQMNSLKPEDTAVYYCAARARDLYGYWGQGTQVTVSS”, the “polyreactivity (PSR sort gate)” value is “high polyreactivity”. In the case of “QVQLVESGGGLVQAGGSLRLICAASGRIFGKNDMGWYREAPRKEREFVATIDWSGGSTYYADSVKGRFTISRDNAKNTVDLQMNSLIPEDNAVYYCAARQYWTTDLPFQRYYYWGQGTQVTVSS”, the “polyreactivity (PSR sort gate)” value is on record as “low polyreactivity”.

Take “QVQLGESGGGLVQAGGSLRLSCAASGSMFYSNARGWYRQAPGTERELVASIRGSGVSTYYADSVKGRFTISRDNAKNTVYLPMNSLKPEDTAVYDCAPRYGRSYFGYYYWGQGTQVTVSS”: the “polyreactivity (PSR sort gate)” value was “high polyreactivity”. For the sequence “HVQLQESAGGLVQAGASLRLSCAPSGNISYSRNMGWYRQAPGKERELVAAIDRGAITYYADSVKGRFTISRDNEKNTVYLQIFSLKPEDTAVYYCAAVYHDRWDHRYWGQGTQVTVSS”, the “polyreactivity (PSR sort gate)” value is listed as “high polyreactivity”. As for “QVQLVESGGGLVQAGGSLRLSCAASGRTFRYYAMGWYRQAPGKERELVAAINRGGSTYYADSVKGRFTISRDNAKNTVYLQMNSLKPEDTAVYYCNFDKYRIVGFHSPYDYWGQGSQVTVSS”, the entry is “high polyreactivity”. For “QVQLVESGGGLVQAGGSLRLSCAASGRIFDLNAMGWYRQAPGKERELVAAITWSGDSTYYADSVKGRFTISRDNAKNTVYLQMNSLNPEDTAVYYCAAASRTSYSWVDYEFDYWGQGTQVTVSS”, the “polyreactivity (PSR sort gate)” value is listed as “low polyreactivity”. As for “QVQLVESGGGLVQAGGTLRISCAASGSTAYVMGWYRQAPGKEMELVAAISKSGGSTYYADSVKGRFTISRDNAKNTVYLQMNSLKPEDTAVYYCAALYPTTTAYRYGYWGQGTQVTVSS”, the entry is “high polyreactivity”; as for “QVQVEDTGGGLVQEGGSHRLSCAASGRTFYYYTMGRYRQPPVKEREFVAAITISGARTYYADSVKGRFTISRDNAKNTVYLQMNSLKPEDTPVYYCAARRRYRSRVTTVGYNYWGQGTQVTVSS”, “high polyreactivity”; as for “QVQLVESRGGIVQAGGSLRLSCAASGRIFNNYAMGCYRQAPGKERELDAAISGGGSTNYADSVKGRFTISRDNETNTVYLQMNSLKPEDTAVYYSATGYLKASRDLYETVPYDYWGQGTQVTVSS”, “low polyreactivity”.

Consider “QVPLVESGGRLVQAGGSLRLSCAASGSTIGPYTMGWYRQAPGKERELVATISSGGSTYSADSVKGRFTISRDNEKNTVYLQMISLKPEDTAVYYCAARYRSIYDYWGQGTQVTVSS”, for which the “polyreactivity (PSR sort gate)” value is on record as “low polyreactivity”. As to “QVQLVESGGGLVQAGGSLRLSCAASGRTFRLYAMGWYRQAPGKERELVADITTGGGSTYYADSVKGRFTISRDNAKNTVYLQMNSLKPEDTAVYYCAAEQDTVWFLWIVDYWGQGTQVTVSS”, the “polyreactivity (PSR sort gate)” value is listed as “low polyreactivity”. Consider “QVQLVESGGGLVQAGGSLRLSCAASGRTFRKYAMGWYRQAPGKERELVAAISWSGGSTYYANSVKGRFTISRDYAKNTVYLQMNILKPEDTAVYYCAAVPVHTGSLYWGFTTGYDYWGQGTQVTVSS”, for which the “polyreactivity (PSR sort gate)” value is listed as “low polyreactivity”.

On to “QVQLVESGGGLVQAGGSLRLSCAASGGIFVSYAMGLYRQAPGKERELVARINSVDGTNYADSVKGRFTISRDNAKNTVYLQMNSLKPEDTAVYYCAVRSPVLASDYGYYFLRDYWGQGTQVTVSS”, for which the “polyreactivity (PSR sort gate)” value is on record as “low polyreactivity”. Regarding “QVQLVESGGGLVQAGGSLRLSCAASGSTFYGKAMGWYRQAPGKERELVDTISWSGGSTYYADSVKGRFTISRDNAKNTVYLQMNSVKPEDTAVYYCNAEITTKSLVTRYSWYGGDYWRQGTQVTVSS”, the “polyreactivity (PSR sort gate)” value is “low polyreactivity”. For the sequence “QLQLEESAGGLVQAGGSLRLSCAASGSIFGPYAMGSYSQAPGKERELVAAITWSGDSTYYADSVKGRFTISRDNAKNTVYLQMNSLKPEDTAVSYCNADWGQGTQVTVSS”, the “polyreactivity (PSR sort gate)” value is on record as “low polyreactivity”. On to “QVQLVESGGGLVQAGGSLRLSCAASGRIFYYYAMGWYRQAPGKEREFVADISARGGSTYYADSVKGRFTISRDNAKNTVYLQMNSLKPEDTAVYYCAATTGLYTRYGYWGQGTQVTVSS”, for which the “polyreactivity (PSR sort gate)” value was “high polyreactivity”. In the case of “QVQLVESGGGLVQAGGSLRLSCAASGRIFTWYAMGWYRQAPGKERELVAAINASGGGTYADSVKGRFTISRDNAKNTVYLQMNSLKPEDTAVYYCNADIRAFYLYYSEGFSWRLDYWGQGTQVTVSS” it was “high polyreactivity”. In the case of “QVQLVESGGGLVQAGGSLRLSCAASGRIFYTNAMGWYRQAPGKERELVAAIKWNGGRTYYADSVKGRFTISRDNAKNTVYLQMNSLKPEDTAVYYCAAGAPVDPWYSGLVVLDGMDYWGQGTQVTVSS”, the “polyreactivity (PSR sort gate)” value is recorded as “low polyreactivity”. With “QVQLVESGGGLVQAGGSLRLSCAASGSIIGTNVMGWYRQAPGKERELVASISYRDGTTYYADSVKGRFTISRDNAKNTLYLQMNSLKPEDTAVYYCAVANYYSYYWGQGTQVTVSS”, the “polyreactivity (PSR sort gate)” value is on record as “low polyreactivity”. As for “QVQLVESGGGLVQAGGSLRLSCAASGSIFRTNAMGWYRQAPGKERELVAAISSGDRTYYADSVKGRFTISRDNAKNTVYLQMNSLKPEDTAVYYCAARGYSATVYAGTYDYWGQGTQVTVSS”, the entry is “low polyreactivity”. As to “QVQLVESGGGLVQAGGSLRLSCASSGRIIINYDMGWYRQAPGKEIELVAAITWSTGSTYADSVKGRFTISRDNAKNTVYLQMNSLKPEDTAVYYCAAPWGQTDDRHQGGDYWGQGTQVTVSS”, the “polyreactivity (PSR sort gate)” value is given as “low polyreactivity”. “QGQLVESGGGLVQAGGSLRLSCAASGRTLYYYAMGWYRQAPGKERELVAAISGGGRTYYADSVKGRFTISRDNAKKTVDLQMNSLKPEDTAVYYCAARYRKSGLDNYWGQGTQVTVSS”: the “polyreactivity (PSR sort gate)” value is recorded as “high polyreactivity”. “QVQLVESGGGLVQAGCSLRLSCAASGRIFTHNAMGWYRPAPGKERELVAAITSGGRTTYADSVKGRFTFSRDNAKNTVYLQMHSLNPEDTAVYYCNADTGLGSLDFDKRDYWGQGTQVTVSS”: the “polyreactivity (PSR sort gate)” value is recorded as “low polyreactivity”. On to “QVQLVESGGALVQAGGSLRLSCAASGFTFSAYAMGWYRQAPVKEREMVASISRGGITNYADSVKGRFTISRDNAKNTVYLQMNSLQPEDTAFYYCAVDYSFRYDYVQRYYYWGQGTQVSVSS”, for which the “polyreactivity (PSR sort gate)” value is recorded as “high polyreactivity”.

For the sequence “QVQLVESGGGLVQAGGSLRLSCAASGSTFTLYAMGWSRPAPGKERELVATISWNGGRTYYADSVKGRFTISRDNAKNTVYLQMNSLKPEDTAVYYCAADTYDADYDYWGQGTQVTVSS”, the “polyreactivity (PSR sort gate)” value is given as “high polyreactivity”. As to “QVQLEESGGGLVQAGGRLRLSCAASGITFGSYAMGWYRQAPGKERELVAAITRSDITNYADSVKGRFTISRDNAKNSVYLQMNRLNREDTAVYYCNKTPDRHRRYFGYGYWGHGTQVTVSS”, the “polyreactivity (PSR sort gate)” value is recorded as “low polyreactivity”.

With “QVQLVESGGGLVQAGGSLGLSCAAYGSIFVGNAMGWYRQAPGNERELVAAICRSGGITYYADSVKGRFTISRDNAKNTVYLQMNSLKPEDTAVYYCAARHRYYYQYRSDYWGQGTQVTVSS”, the “polyreactivity (PSR sort gate)” value was “high polyreactivity”. Consider “QVQLVESGGGLVQAGGSLRLSCAASGRIFRWNAMGWYRQAPGKEREFVAAISWNGGRTYYADSVMGRFTISRDNAKNTVYLQMNSLKPEDPAVYYCAATHSVPDLLSGDYWGQGTQVTVSS”, for which the “polyreactivity (PSR sort gate)” value is on record as “low polyreactivity”.

As to “QVQLVESGVGLVQAGGSLRLSCAASGNIFGYYAMGWYRQAPGKERELVAAISRSGTRTYYADSVKGRFTISRDNAKNTVYLQMNSLKPEDTAVYYCNAAKSPARFQVNNFDYWGQGTQVTVSS”, the “polyreactivity (PSR sort gate)” value is on record as “high polyreactivity”.

Values taken from the nanobody polyreactivity screen of Harvey et al. (2022).
